Measurements reported in PMC4658161, “Mutually Exclusive Roles of SHARPIN in Integrin Inactivation and NF-κB Signaling” (PLoS ONE, 2015).

Target: T1, recombinant full-length human ITGAL-ITGB2 (human, UniProt P20701 26-1170; P05107 23-769)
T1 construct: integrin alpha L (ITGAL), human, full-length; integrin beta 2 (ITGB2), human, full-length; also called full-length ITGAL-ITGB2; LFA-1; source: bought: Origene
Test: far-Western; GST-SHARPIN (WT, fragments or point mutants) with recombinant full-length ITGAL-ITGB2 or recombinant RNF31; which partner was on the membrane is not told; performed as described in ref. 5
Conditions: both partners purified

T1 sequence (P20701 26-1170, chain 1 of 2): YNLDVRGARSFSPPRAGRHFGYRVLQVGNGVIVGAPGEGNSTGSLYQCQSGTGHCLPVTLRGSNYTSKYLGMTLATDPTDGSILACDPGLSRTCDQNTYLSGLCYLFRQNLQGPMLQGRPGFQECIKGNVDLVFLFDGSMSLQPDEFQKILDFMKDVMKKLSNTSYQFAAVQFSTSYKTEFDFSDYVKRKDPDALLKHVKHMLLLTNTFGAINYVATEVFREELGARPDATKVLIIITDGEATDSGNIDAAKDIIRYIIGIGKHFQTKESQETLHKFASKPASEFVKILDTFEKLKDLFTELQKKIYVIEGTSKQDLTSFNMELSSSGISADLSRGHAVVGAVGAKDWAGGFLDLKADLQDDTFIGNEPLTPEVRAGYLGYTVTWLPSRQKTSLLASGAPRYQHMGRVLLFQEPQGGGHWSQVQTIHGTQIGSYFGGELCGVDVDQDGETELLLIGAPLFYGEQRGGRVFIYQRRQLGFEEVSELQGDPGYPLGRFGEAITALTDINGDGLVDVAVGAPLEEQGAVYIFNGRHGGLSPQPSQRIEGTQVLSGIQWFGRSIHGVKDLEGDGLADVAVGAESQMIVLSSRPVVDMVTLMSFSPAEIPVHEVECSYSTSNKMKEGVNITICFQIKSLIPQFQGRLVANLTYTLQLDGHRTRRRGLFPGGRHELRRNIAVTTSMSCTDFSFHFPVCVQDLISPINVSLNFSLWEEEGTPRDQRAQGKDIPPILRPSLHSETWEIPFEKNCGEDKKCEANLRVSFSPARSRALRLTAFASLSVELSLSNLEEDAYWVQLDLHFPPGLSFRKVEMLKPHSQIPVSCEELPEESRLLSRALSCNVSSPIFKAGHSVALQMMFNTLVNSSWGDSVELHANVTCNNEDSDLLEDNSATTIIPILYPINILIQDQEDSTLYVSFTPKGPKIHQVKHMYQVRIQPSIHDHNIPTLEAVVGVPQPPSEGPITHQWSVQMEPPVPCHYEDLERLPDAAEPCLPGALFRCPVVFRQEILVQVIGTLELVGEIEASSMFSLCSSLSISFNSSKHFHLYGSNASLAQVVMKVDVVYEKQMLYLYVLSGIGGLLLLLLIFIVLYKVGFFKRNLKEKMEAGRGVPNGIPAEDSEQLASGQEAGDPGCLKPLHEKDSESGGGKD
T1 sequence (P05107 23-769, chain 2 of 2): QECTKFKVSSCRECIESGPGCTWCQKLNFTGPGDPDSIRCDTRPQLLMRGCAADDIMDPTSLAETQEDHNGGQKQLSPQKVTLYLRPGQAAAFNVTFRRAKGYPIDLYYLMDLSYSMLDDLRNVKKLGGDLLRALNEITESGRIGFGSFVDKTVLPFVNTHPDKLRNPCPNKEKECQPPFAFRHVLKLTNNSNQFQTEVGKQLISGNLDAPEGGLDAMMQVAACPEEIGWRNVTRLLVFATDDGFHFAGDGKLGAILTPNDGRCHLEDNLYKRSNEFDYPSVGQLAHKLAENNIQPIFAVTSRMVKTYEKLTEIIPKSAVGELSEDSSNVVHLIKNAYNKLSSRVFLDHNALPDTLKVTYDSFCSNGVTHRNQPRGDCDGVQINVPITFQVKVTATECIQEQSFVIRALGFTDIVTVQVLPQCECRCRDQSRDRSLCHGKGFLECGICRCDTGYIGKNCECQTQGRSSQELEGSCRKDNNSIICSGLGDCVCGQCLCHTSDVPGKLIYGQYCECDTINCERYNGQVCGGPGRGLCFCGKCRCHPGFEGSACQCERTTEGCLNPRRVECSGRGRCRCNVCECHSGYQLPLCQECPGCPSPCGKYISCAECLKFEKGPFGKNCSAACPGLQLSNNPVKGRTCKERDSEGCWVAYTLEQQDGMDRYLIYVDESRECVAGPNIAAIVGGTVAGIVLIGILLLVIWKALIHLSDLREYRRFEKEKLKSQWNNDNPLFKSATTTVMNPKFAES

| binding result | Binder |
| --- | --- |
| binds | GST-SHARPIN^WT (natural protein, UniProt Q9H0F6 1-387, looked up, also called GST-SHARPIN (full-length); source: E. coli strain Rosetta BL21DE3, purified) MAPPAGGAAAAASDLGSAAVLLAVHAAVRPLGAGPDAEAQLRRLQLSADPERPGRFRLELLGAGPGAVNLEWPLESVSYTIRGPTQHELQPPPGGPGTLSLHFLNPQEAQRWAVLVRGATVEGQNGSKSNSPPALGPEACPVSLPSPPEASTLKGPPPEADLPRSPGNLTEREELAGSLARAIAGGDEKGAAQVAAVLAQHRVALSVQLQEACFPPGPIRLQVTLEDAASAASAASSAHVALQVHPHCTVAALQEQVFSELGFPPAVQRWVIGRCLCVPERSLASYGVRQDGDPAFLYLLSAPREAPATGPSPQHPQKMDGELGRLFPPSLGLPPGPQPAASSLPSPLQPSWSCPSCTFINAPDRPGCEMCSTQRPCTWDPLAAAST |
| binds | GST-SHARPIN^L276A (natural protein, UniProt Q9H0F6 1-387, looked up, source: E. coli strain Rosetta BL21DE3, purified) MAPPAGGAAAAASDLGSAAVLLAVHAAVRPLGAGPDAEAQLRRLQLSADPERPGRFRLELLGAGPGAVNLEWPLESVSYTIRGPTQHELQPPPGGPGTLSLHFLNPQEAQRWAVLVRGATVEGQNGSKSNSPPALGPEACPVSLPSPPEASTLKGPPPEADLPRSPGNLTEREELAGSLARAIAGGDEKGAAQVAAVLAQHRVALSVQLQEACFPPGPIRLQVTLEDAASAASAASSAHVALQVHPHCTVAALQEQVFSELGFPPAVQRWVIGRCACVPERSLASYGVRQDGDPAFLYLLSAPREAPATGPSPQHPQKMDGELGRLFPPSLGLPPGPQPAASSLPSPLQPSWSCPSCTFINAPDRPGCEMCSTQRPCTWDPLAAAST |
